The Km is the concentration of substrate that gives half-maximal velocity. By Vmax is commonly meant the rate approached at saturating substrate. Broadly, the kcat is the maximal rate divided by the concentration of active sites. As usually defined, the kcat/Km is the second-order rate constant that governs catalysis at low substrate concentration. In general, stoichiometry N refers to a count of units in the complex or per binding partner.

Substrate in series [1]: CC(C)C[C@H](N)C(=O)O
Description: purified protein. Particulars: oxidative deamination, co-substrate NAD+, 37 °C.

Substrate in series [2]: CC(C)[C@H](N)C(=O)O
Description: purified protein. Particulars: oxidative deamination, co-substrate NAD+, 37 °C.

Substrate in series [3]: CC[C@H](C)[C@H](N)C(=O)O
As to the kind of experiment: purified protein. Particulars: oxidative deamination, co-substrate NAD+, 37 °C.

Substrate in series [4]: NC(=O)c1ccc[n+]([C@@H]2O[C@H](COP(=O)(O)OP(=O)(O)OC[C@H]3O[C@@H](n4cnc5c(N)ncnc54)[C@H](O)[C@@H]3O)[C@@H](O)[C@H]2O)c1
Description: purified protein. Particulars: 37 °C, amino acid co-substrate not given, varied: cofactor.

Series [5] concerns the molecule itself. As to the kind of experiment: SEC-MALS. (SEC sorts molecules by how far they enter the pores of the column.)

B1: Leucine dehydrogenase from Pseudomonas aeruginosa (enzyme)
chain: MFDMMDAARLEGLHLAQDPATGLKAIIAIHSTRLGPALGGCRYLPYPNDEAAIGDAIRLAQGMSYKAALAGLEQGGGKAVIIRPPHLDNRGALFEAFGRFIESLGGRYITAVDSGTSSADMDCIAQQTRHVTSTTQAGDPSPHTALGVFAGIRASAQARLGSDDLEGLRVAVQGLGHVGYALAEQLAAVGAELLVCDLDPGRVQLAVEQLGAHPLAPEALLSTPCDILAPCGLGGVLTSQSVSQLRCAAVAGAANNQLERPEVADELEARGILYAPDYVINSGGLIYVALKHRGADPHSITAHLARIPARLTEIYAHAQADHQSPARIADRLAERILYGPQ
Take B1: in series [1], the Michaelis constant (Km) was 1100 ± 100 µM, the maximal velocity (Vmax) turned out to be 21100 µM/min/mg, the catalytic constant (kcat) was 5.2 ± 0.5 s⁻¹ and the kcat/Km was 4300 ± 700 M⁻¹ s⁻¹. Besides, in series [2], the Km was found to be 500 ± 100 µM, the maximal velocity (Vmax) stood at 35000 µM/min/mg, the kcat came to 9.6 ± 0.8 s⁻¹ and the kcat/Km came out at 14400 ± 900 M⁻¹ s⁻¹. For the same protein, in series [3], the Michaelis-Menten constant (Km) was determined as 400 ± 100 µM, the maximal velocity (Vmax) was 7870 µM/min/mg, the turnover number (kcat) amounted to 1.8 ± 0.1 s⁻¹ and the specificity constant (kcat/Km) is 5800 ± 400 M⁻¹ s⁻¹. Further, in series [4], the Michaelis constant (Km) came out at 200 ± 100 µM and the Vmax came out at 23200 µM/min/mg. Further, in series [5], the “stoichiometry N” value was determined as 2.

The values are drawn from publication PMC9260137 (Molecules and Cells, 2022).
